# Experimental data published in the supplement of paper PMC9112550, “Optimization of the antimicrobial peptide Bac7 by deep mutational scanning” (BMC Biology, 2022).
# Test system: Escherichia coli TOP10
# Experiment: shrunken log2 fold change of peptide-encoding DNA abundance (4.5 h post-induction vs induction); higher = less antimicrobial activity (less host growth inhibition)
# Conditions: time post-induction: 4.5 h; library: site-saturation at positions 5, 18, 19, 20
# 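Further: peptides expressed intracellularly from a pBAD plasmid library in pooled LB shake-flask culture, induced with 0.3% L-arabinose, DNA abundance read by NGS, three biological replicates, DESeq2 with apeglm shrinkage.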
row,Sequence,shrunken log2 fold change
1,RRIRFRPPRLPRPRPRPHNQPRP,-0.75
2,RRIRGRPPRLPRPRPRPSHNPRP,-0.189
3,RRIRTRPPRLPRPRPRPVMIPRP,-0.126
4,RRIRWRPPRLPRPRPRPQHNPRP,-0.537
5,RRIRCRPPRLPRPRPRPGYYPRP,-0.281
6,RRIRCRPPRLPRPRPRPSQWPRP,-0.337
7,RRIRFRPPRLPRPRPRPQLTPRP,-0.527
8,RRIRKRPPRLPRPRPRPIWHPRP,0.248
9,RRIRTRPPRLPRPRPRPGVLPRP,0.08
10,RRIRGRPPRLPRPRPRPTMEPRP,0.751
11,RRIRERPPRLPRPRPRPCSFPRP,-0.153
12,RRIRDRPPRLPRPRPRPMHKPRP,0.0101
13,RRIRTRPPRLPRPRPRPGQIPRP,0.0034
14,RRIRSRPPRLPRPRPRPRIHPRP,-0.323
15,RRIRERPPRLPRPRPRPHWMPRP,-0.157
16,RRIRMRPPRLPRPRPRPMFDPRP,-0.328
17,RRIRFRPPRLPRPRPRPGFVPRP,0.126
18,RRIRHRPPRLPRPRPRPVISPRP,-0.199
19,RRIRGRPPRLPRPRPRPKNEPRP,0.713
20,RRIRMRPPRLPRPRPRPESFPRP,0.0441
21,RRIRVRPPRLPRPRPRPLERPRP,-0.0607
22,RRIRKRPPRLPRPRPRPSIWPRP,-0.0618
23,RRIRHRPPRLPRPRPRPCELPRP,0.00567
24,RRIRTRPPRLPRPRPRPDEHPRP,-0.0955
25,RRIRLRPPRLPRPRPRPVRMPRP,0.494

row,Sequence,shrunken log2 fold change
1,RRIRWRPPRLPRPRPRPGTAPRP,0.392
2,RRIRMRPPRLPRPRPRPQAHPRP,0.0821
3,RRIRYRPPRLPRPRPRPAGQPRP,0.00356
4,RRIRCRPPRLPRPRPRPCGQPRP,0.143
5,RRIRKRPPRLPRPRPRPMYVPRP,-0.0793
6,RRIRQRPPRLPRPRPRPPRYPRP,0.606
7,RRIRNRPPRLPRPRPRPKRFPRP,0.0343
8,RRIRLRPPRLPRPRPRPQPGPRP,0.0607
9,RRIRYRPPRLPRPRPRPMDMPRP,-0.00926
10,RRIRQRPPRLPRPRPRPWMVPRP,-0.0803
11,RRIRKRPPRLPRPRPRPLDRPRP,-0.0461
12,RRIRFRPPRLPRPRPRPSMRPRP,0.377
13,RRIRSRPPRLPRPRPRPPTEPRP,0.194
14,RRIRGRPPRLPRPRPRPNQVPRP,0.195
15,RRIRMRPPRLPRPRPRPEVPPRP,1.33
16,RRIRRRPPRLPRPRPRPCTKPRP,-0.147
17,RRIRPRPPRLPRPRPRPSWFPRP,-0.248
18,RRIRNRPPRLPRPRPRPLATPRP,0.292
19,RRIRHRPPRLPRPRPRPWYHPRP,-1.53
20,RRIRARPPRLPRPRPRPTRPPRP,0.764
21,RRIRKRPPRLPRPRPRPPVDPRP,0.0616
22,RRIRRRPPRLPRPRPRPEEPPRP,0.24
23,RRIRIRPPRLPRPRPRPDGYPRP,-0.00133
24,RRIRCRPPRLPRPRPRPRYLPRP,-0.799
25,RRIRQRPPRLPRPRPRPSQLPRP,0.0128

row,Sequence,shrunken log2 fold change
1,RRIRFRPPRLPRPRPRPAKGPRP,0.141
2,RRIRTRPPRLPRPRPRPWTEPRP,0.00497
3,RRIRMRPPRLPRPRPRPGDDPRP,1.96
4,RRIRARPPRLPRPRPRPHVPPRP,-0.242
5,RRIRQRPPRLPRPRPRPFPTPRP,-0.0177
6,RRIRFRPPRLPRPRPRPYFKPRP,-0.848
7,RRIRKRPPRLPRPRPRPCFDPRP,0.0357
8,RRIRSRPPRLPRPRPRPMVTPRP,-0.134
9,RRIRDRPPRLPRPRPRPMFDPRP,0.894
10,RRIRVRPPRLPRPRPRPDIVPRP,-0.229
11,RRIRWRPPRLPRPRPRPHEAPRP,0.273
12,RRIRQRPPRLPRPRPRPWDPPRP,-0.327
13,RRIRIRPPRLPRPRPRPCIPPRP,-0.307
14,RRIRMRPPRLPRPRPRPCNYPRP,0.0171
15,RRIRYRPPRLPRPRPRPYNLPRP,0.00739
16,RRIRYRPPRLPRPRPRPPCFPRP,-0.242
17,RRIRTRPPRLPRPRPRPHMKPRP,-0.712
18,RRIRKRPPRLPRPRPRPSGRPRP,0.288
19,RRIRMRPPRLPRPRPRPVGSPRP,0.99
20,RRIRLRPPRLPRPRPRPNKYPRP,-0.742
21,RRIRDRPPRLPRPRPRPCHEPRP,-0.0135
22,RRIRVRPPRLPRPRPRPLVKPRP,-0.0152
23,RRIRKRPPRLPRPRPRPPSGPRP,1.1
24,RRIRLRPPRLPRPRPRPQLSPRP,-0.0956
25,RRIRTRPPRLPRPRPRPRDWPRP,0.483

row,Sequence,shrunken log2 fold change
1,RRIRGRPPRLPRPRPRPINYPRP,0.000824
2,RRIRSRPPRLPRPRPRPHIGPRP,-0.0154
3,RRIRWRPPRLPRPRPRPQPQPRP,0.417
4,RRIRGRPPRLPRPRPRPGPGPRP,1.65
5,RRIRQRPPRLPRPRPRPCITPRP,-0.167
6,RRIRQRPPRLPRPRPRPSRVPRP,-0.00679
7,RRIRKRPPRLPRPRPRPHWAPRP,0.118
8,RRIRERPPRLPRPRPRPIGPPRP,-0.138
9,RRIRLRPPRLPRPRPRPQMNPRP,-0.507
10,RRIRWRPPRLPRPRPRPWCLPRP,-0.334
11,RRIRNRPPRLPRPRPRPGKLPRP,-0.0284
12,RRIRFRPPRLPRPRPRPIYFPRP,-0.09
13,RRIRSRPPRLPRPRPRPADEPRP,0.246
14,RRIRGRPPRLPRPRPRPPYMPRP,-0.0678
15,RRIRWRPPRLPRPRPRPHNMPRP,-0.623
16,RRIRFRPPRLPRPRPRPSQGPRP,-0.117
17,RRIRFRPPRLPRPRPRPGSVPRP,-0.147
18,RRIRLRPPRLPRPRPRPNVEPRP,-0.211
19,RRIRVRPPRLPRPRPRPEFCPRP,0.267
20,RRIRTRPPRLPRPRPRPNGYPRP,-0.12
21,RRIRKRPPRLPRPRPRPSFKPRP,-0.0346
22,RRIRGRPPRLPRPRPRPYVTPRP,0.0521
23,RRIRKRPPRLPRPRPRPKSFPRP,-0.125
24,RRIRYRPPRLPRPRPRPEFWPRP,-0.0503
25,RRIRLRPPRLPRPRPRPQNVPRP,-0.523

row,Sequence,shrunken log2 fold change
1,RRIRLRPPRLPRPRPRPDLWPRP,0.774
2,RRIRKRPPRLPRPRPRPDIDPRP,2.44
3,RRIRNRPPRLPRPRPRPMFIPRP,-0.383
4,RRIRKRPPRLPRPRPRPIKWPRP,0.00487
5,RRIRIRPPRLPRPRPRPGASPRP,0.0546
6,RRIRYRPPRLPRPRPRPGPNPRP,0.205
7,RRIRPRPPRLPRPRPRPMVYPRP,-0.228
8,RRIRLRPPRLPRPRPRPMSFPRP,-0.284
9,RRIRERPPRLPRPRPRPQTTPRP,0.0104
10,RRIRYRPPRLPRPRPRPRHPPRP,-0.266
11,RRIRGRPPRLPRPRPRPDRGPRP,-0.123
12,RRIRNRPPRLPRPRPRPLETPRP,-0.0418
13,RRIRLRPPRLPRPRPRPRSDPRP,0.126
14,RRIRSRPPRLPRPRPRPKVTPRP,-0.173
15,RRIRSRPPRLPRPRPRPGAWPRP,0.342
16,RRIRTRPPRLPRPRPRPKKGPRP,-0.0611
17,RRIRHRPPRLPRPRPRPRDLPRP,-0.0495
18,RRIRPRPPRLPRPRPRPLMTPRP,-0.0836
19,RRIRRRPPRLPRPRPRPNYHPRP,-0.223
20,RRIRERPPRLPRPRPRPEIPPRP,0.151
21,RRIRARPPRLPRPRPRPDHDPRP,0.592
22,RRIRTRPPRLPRPRPRPAWFPRP,0.131
23,RRIRERPPRLPRPRPRPCYTPRP,-0.0917
24,RRIRARPPRLPRPRPRPHRFPRP,-0.176
25,RRIRKRPPRLPRPRPRPWAIPRP,0.14

row,Sequence,shrunken log2 fold change
1,RRIRFRPPRLPRPRPRPKEQPRP,-0.00277
2,RRIRIRPPRLPRPRPRPWDWPRP,0.0472
3,RRIRQRPPRLPRPRPRPIYGPRP,-0.00674
4,RRIRCRPPRLPRPRPRPCNYPRP,-1.4
5,RRIRARPPRLPRPRPRPVNTPRP,-0.0807
6,RRIRCRPPRLPRPRPRPYHRPRP,-0.77
7,RRIRYRPPRLPRPRPRPHCSPRP,-0.239
8,RRIRPRPPRLPRPRPRPDPAPRP,0.326
9,RRIRDRPPRLPRPRPRPFITPRP,-0.118
10,RRIRNRPPRLPRPRPRPSSNPRP,-0.416
11,RRIRNRPPRLPRPRPRPSTEPRP,0.118
12,RRIRYRPPRLPRPRPRPGQIPRP,-0.0348
13,RRIRKRPPRLPRPRPRPNLWPRP,0.492
14,RRIRYRPPRLPRPRPRPKWNPRP,-0.483
15,RRIRGRPPRLPRPRPRPEIMPRP,1.33
16,RRIRIRPPRLPRPRPRPSVQPRP,-0.51
17,RRIRTRPPRLPRPRPRPWSMPRP,-0.36
18,RRIRHRPPRLPRPRPRPPHVPRP,0.16
19,RRIRYRPPRLPRPRPRPSAQPRP,-0.17
20,RRIRPRPPRLPRPRPRPTGLPRP,0.156
21,RRIRMRPPRLPRPRPRPMVDPRP,0.0184
22,RRIRPRPPRLPRPRPRPTDSPRP,-0.245
23,RRIRARPPRLPRPRPRPLDMPRP,-0.00812
24,RRIRMRPPRLPRPRPRPCGFPRP,0.0233
25,RRIRGRPPRLPRPRPRPIQAPRP,1.16
